According to the DeepSol protein solubility set:

Assay: soluble on expression in E. coli; label from the status in PepcDB or PDB records

Soluble on expression in E. coli, soluble:
MSLTTLNIGLILPDVLGTYGDDGNALVLRQRARMRGINAEIQRVTLDDAVPSTLDLYCLGGGEDTAQILATEHLTKDGGLQTAAAAGRPIFAVCAGLQVLGDSFRAAGRVIDGLGLIDATTVSLQKRAIGEVETTPTRAGFTAELTERLTGFENHMGATLLGPDAEPLGRVVRGEGNTDVWAASENTDDQRQQFAEGAVQGSIIATYMHGPALARNPQLADLMLAKAMGVALKDLEPLDIDVIDRLRAERLAEGHHHHHH
MKAYRIHVQGIVQAVGFRPFVYRIAHAHNLKGFVRNLGDAGVEIVIEGNEEDIEGFLVDLYKKKPPIARIDKVEKEEIPPQGFDRFYIEKSSTEKKGEGDSIIPPDIAICDDCLKELFDPTNKRYMYPFIVCTNCGPRFTIIEDLPYDRENTAMREFPMCEFCRSEYEDPLNRRYHAEPVACPTCGPSYRLYTNDGNEIVGDPLRKAAKLIDKGYIVAIKGIGGIHLACDATREDVVVELRKRIFRPQKPFAIMAKDLETIRTFAYVSPEEEEELTSYRRPIVALKKKEPFPLPENLAPGLHTIGVMLPYAGTHYILFHWSETPVYVMTSANFPGMPMIKDNEEAFEKLRDVADYLLLHNRRIPNRADDSVVRFVDGRRAVIRRSRGFVPLGIEIPFEYKGLAVGAGLMNAFGVSKSGKVYPSQYIGDTSKIEVLEFMRDAIRHFFKILRIDSLDLVVADLHPSYNTTKLGMEIAEEFGAEFLQVQHHYAHVASVMAEHNLEEVVGIALDGVGYGTDGKTWGGEVIYLGYEDVERLAHIEYYPLPGGDLASYYPLRALIGILSLNHDFEEVEKIIREFCPNAIKSLKYGETEFKVILRQLSSGINVAYASSTGRVLDAFSVLLNVSYRRHYEGEPAMKLESFAYQGKNDLNLTVPIEGEEIKVSELFEEVLELMGKVNPRDIAYSVHLALARAFAEVSVEKAKEFGVKTVVLGGGVGYNELIVKTIRKIVEGRELRFLTTYEVPRGDNGINVGQAFLGGLYLEGYLNREDLSI
MNTGHHKVADTLIDFLHRQFPWVESKKIDFLSYCNELMEKMVSGAYLRWIRSHPASYHRVYKTFMYEESLRLEFVSFEPWLPYFEGKMKKMLEQERPDLIVCTHSFPSRILQQLKRKKVLAIPVVNVYTDFFMNSIWGKRFIDYHFVPHQEAKRELIVKHGIDERRIVVTGIPAAALEHHHHHH
AHHHHHHGSKARGRAWKYGDNIDTDVIIPARYLNTSDPKELAQHVLEDLDPEFRYKMKPGDIIVAGENFGCGSSREHAPLAIKAAGVSAVIAKSFARIFYRNAINIGLPILEAPEAVERIETGDEIEIDFSTGEIRNLTKGEVYHANPFPEFIMEIIKAGGLVEWAKRRLAK
MVTFNCEVCNDTVPKKNTEKHYYRCPNAYYTCIDCSKTFEDGVSYKNHTSCISEDEKYQKALYKGNKKQKQKQQQKQQQKQHQHQPVATPAKKVEKPVIKKAEKVEKTSNGIELHKGKSLYKILKTMKDKGAKKTFLKSLVVDSEGQIRYAKE
MRNPFERMPTVLTADELIDKAFRRAEKAASSFKPRGNKVKKARLREELRVRTVSNVVRDNLRKVLERTPGLSTLPKFYQELVDVLVDRDTFHKAMAGIDWAIRIIRELEERYVERIRYSNDPNEIAELRRQFYGRVASVLRDIDDRLRYLNKAREVLKDLPVVDLEIPTVVIAGHPNVGKSTLLKALTTAKPEIASYPFTTRGINVGQFEDGYFRYQIIDTPGLLDRPISERNEIEKQAILALRYLGNLIIYIFDPSEHCGFPLEEQIHLFEEVHGEFKDLPFLVVINKIDVADEENIKRLEKFVKEKGLNPIKISALKGTGIDLVKEEIIKTLRPLAEKVAREKIERELRRYRSYL

Soluble on expression in E. coli, not soluble:
MKVLKPGLLTTVQDIGRTGYQKYGVLASGAMDTVSLRIANLLIGNGENEAGLEITMMGPGPSFHFSKQTLIAVTGADFTLRINDEEAPLWKPVLIKENSTVSFGPCKLGSRAYLAAAGGIEVPAVMESKSTYVRGSIGGLHGRALQKEDELNIGEMSALSQTILSRLSSQLAHTVIGSTDVVSQPWEISVIEDESRHSSAGGISICLLHSRIKNAFSEEAFRVTPQSDRMGYRLKGEPLDLTAPLEMVSAAVSFGAAQMPPAGKPYYPCLQDRQDDWPAIRGIAHIISADLPIVSQIMPGEHVQFEPVSLQEAEALAVEREQHIKELKTRMKMEWLT
ALHEATRDLLGADSPSTVAAEVGAAIESILEFRINVIRVHRDGQLQPVHVNDKAEELLAERPTYDVGEGFPGEAFEEQQASVYTDIRDHDGGTALEPVVSWLYVPISEYGIISVGQTDPDAFDETDLNLVQIIASNAEVALQRLQKERELQRENDRLEQFASTVS
MGSDKIHHHHHHMSSTKIIATFNQSGGAAKTTITHNLGYHLAKKHRVLLVDMDPQASLTAFMGLGEVKLQTEQTIYGAIAEETPLYIWEKPIHGMHLVPTNIQLAGTEQKIFHDLTIDNRQRLKFVLSNVLDQYDYILIDCPPSLGILSIMSLVAASHVIIPVETQYKCYLGTNQLLETIARLKKGGHQKLQIACIIPTKYDNRNLQDTGILEEIKQQVEGRIHVTAPIPKSTAFPDATQAHLPLALHKKNHPAVSILEEITKYITQLSVTQGQSH
MGSDKIHHHHHHMKINMPENVQTILNKLHSNGYQAYIYGACIRDYLLGKEPINWDITTNALPNNTVVIFDENEGFTSIPSVEDYGIVTLHFKGESCQVNTFRTGEARRFADDISEDLLHKDFTMNSIAYNEQAGIVDPYNGVGDIEKRLIRCAQNPYEQMQEDSARILRAVRFESQLGFKIEAELLQAMKDLKDTVPASGSRVRNEFIQLLLSEQPSRSIRRLLELGLLERLIPELMPAIGFDTHSSYHDKDVFEHSLVVLDNTEPNLTLRLAALLHDIDKPNCLTIDEDGEGHCYGHASGGSEMAQAILGRLNFDRKTIQAVSSLIKEHMNDFGNISDLSIKRLIRRVGPDNIDRLFELQLADIKGSALSSRDPERITKIRNKCFEVLSRREPLTVHDLDISGYDLLSLGYPPGKKIGETMDYLLDQVIDNPSLNQRDTLIALLKNRK
MSKDVSIGWMYEGAKGNVHREDYLLGKKVDKNFEKYSDVVNAQKAEAIDSIVGTRAVFNSGQSTGLKTSSLQKDIIKSEDPFVAVKVREETKRREIMDNPLTKMRLQAALKSMMTSKAEKSKEKKSKKDKKKKKKKRSSSSSDESSDERVERKRRRSPSPKRRRRPSEKPRKRSRSPRRERPRSPKRSREESRKLSRKPSSSRSKSPRRSREDPRKVARKPSRSRSRSAERLRRKSRSPRRSREEPRKMSRSRSRSADKASSSRQFDSHIPRHLQQQRSRHDSSSGSESEHETRSSHRRRNSDDDERQDPRKKSYGLVEMRKRTAEEREEESRAPTKEYKLVKIPTGRGTGNTPREPRRALSEAEKAARLAEMQQDNVKWRDEIRERNVTKGRKEDDEEKEEADKNGYAPSFIRSQMREACDDMTVEKRLQSNKRGVQRAHGYMDRSFAKK
MGHHHHHHSHMYAKEIFSYMKEREEQFILTDYMNRQIEITSDMRAILVDWLVEVQVSFEMTHETLYLAVKLVDLYLMKAVCKKDKLQLLGATAFMIAAKFEEHNSPRVDDFVYICDDNYQRSEVLSMEINILNVLKCDINIPIAYHFLRRYAR
MQELKDKIKKLGYEEIKDIDDATFIASHKNVYVYVKKVDEEQLKPELVTAITYEAMATDPISTYAWITNGTSNAYVLVEEEKAVSEIPSVFEDENKLYSGKRQLTDRDKWSIRKYQELQEKFDGLHEMIYGMKDHVNNSNDVIDEFSKLIFLETFRLYHPEYRLTKGNVTGKLFNEIYRYEYVEKHKDKAVQEIREAFKEIKDHADYVAILDNGEKANIFSADEYIKLENPNIYIAVLKALQDLGTIIIDGVERPATLRDLTGDVLGRVFDVLLRGKFENKGGMGIYLTPRQVTEAAAEMVLHDLTKDGAAKLIAKDPKTGIPTLRIGDLCCGSGGFLIKMLQKIEHYLLNKLTGDKKQYEELFEQMKEHCFIGADNAPGMVLKARINMALHGAPKCPIFQTRNSLMNTRLKPGTFDAILTNPPFSKTGISKTIKKGKTTVENPEGAEIIKYYSSDIDEDGQNRMSPYGLSLGSKPDSRGKWKEVNSVDPAVLFIDRNLQLLKPGGLLMIVVPDGILSNSGDKYVREYIMGKKNPVTGEFEGGKAILKAVISLPQVTFALSGAGAKTSLLYLKKKEHPGEKQGPVFMAVADEVGFTVKQNVEVQLGDDHNDLLKIVEAYKKGMPEDVE
MGSDKIHHHHHHMAKEKTIYVCRSCGTKYAKWQGNCNACGEWNCIDEEKVPAPASGKHAAKSFMPREQDNRPRLLQDVESGDEERIRLGDEEFDRVLGGGIVKGAFVLLGGEPGIGKSTLILQTVLRLPQLRTLYVSGEESARQLKMRAERLGQAMNGCYVYCETNIERILSRAEELTPDLLVIDSIQTVYTEEMESSAGSVGQIRECAALLLKYCKTTGIPVIVIGHITKEGSIAGPKVLEHIVDTVLLFDGDKHHLYRILRGQKNRYGSTSELGIYEMRQDGLRGVENPSEHLITRNREDLSGIAIAVAMEGIRPILIEAQALVSSAIYANPQRSATGFDIRRMNMLLAVLEKRAGFKLIQKDVFLNIAGGIKIADPATDLAVISAVLASSLDIVIPPAVCMTGEVGLSGEIRPVSRIEQRITEARRIGFKEILVPADNFRQEDAGRFGIRLVPVRKVEEAFRHLFSKGRE
KVVLISDVHVGSSQFLEDAWLDFLDFLKGESDSEEMREIASQVRYLVVAGDLVDGIGIYPDQEMELDILDVYEQYRKAADYFKEIPRHIRVIISPGNHDAVRQAEPQPALPERICADFPENVTFVGNPALVDLDGIRILIYHGRSIDDLVASVPGVSYHEPAGAVLEMLKRRHLAPTYGSRVSISPEKKDYFIIDPVPDIIHTGHVHTLGVQRYKNVLLVNSGTWQAQTEFQKRVNLVPVPARVPVVDLADFDVKILAFD
MTLHEVPTILHRCGDCPIRHRAVCARCDSEELATLEQIKYYRSYQAGQTVIWSGDKMDFVASVVTGIATLTQTMEDGRRQMVGLLLPSDFVGRPGRQTVAYDVTATTDLLMCCFRRKPFEEMMQKTPHVGQRLLEMTLDELDAAREWMLLLGRKTAREKIASLLAIIARRDAALKLRESNGPMTFDLPLTREEMADYLGLTLETVSRQVSALKRDGVIALEGKRHVIVTDFARLLEEAGDDSDGGLPV
MSRGSSAGFDRHITIFSPEGRVYQVEYAFKAINSTNLTAVAVKGADAAVIAVQKRVPDSLIVADTVTSVYQISQSVGCCAIGMIPDAKFQIKRAQGEAASWKYKNGYDMPCELLAKKMADLNQYYTQNAEMRSLGCALLFISYDDEKGPEVYRVDPAGYYRGMKGVSVGVKQLPATSFLEKKIKKKSELTSTEAIELAIEALQTSLGIDVRSKDLEVVVVTKDNSKFTKLTSDQVEHHLNQIANRD
MNAYCLTLNDTNIAIEKKDIKHLHISVCPPDGSVHVSCPLALNDESLRLSLIKRLHWIKEQQQNFLNQNRQSQRGMLERESHYLFGKRYLLKIEHTTKKHFVLQNPKYLILHVHQKTSLENRLKVLENYYRQVLREKIQTCINRYEKILNESIQSFKIQKMKRIWGSCNIAKRALLFNLELAKVPRKGIEYVVVHELLHLKTRHHNEYFRDLLSLYLPNWQRAKASLKETYLERSLEHHHHHH
MIEITVNDRLGKKVRIKCNPSDTIGDLKKLIAAQTGTRWEKIVLKKWYTIYKDHITLMDYEIHEGFNFELYYQ
MSLFLDVQGTLISDHDKSLIHGAKELIDFLNAKNLPYLIITNNTKKLDFLEKLQQKGLVIKENAYIDPFSVLKHLLRPCKVAAFGADEFVKSLENLGFELDFVNPSAVLVASYDDFKFKDFATMIELARREVRFIAMHETSIYKKDGRPYPGVGSIMAMLKNAIDFEYEVVGKPSIAFYKEALNLIRRQNSKIDFEDIKIISDDFRGDLLKAKELGMKTLLVLSGKISDTKGLDTDLLDGVYPSVFEFLKDLKCQIEGHHHHHH
